Drawing on publication PMC12931925, this text covers increase in relative mCerulean output of the functional RAS sensor compared to 0 ng/well of KRAS^G12D plasmid (HEK293, Figure 2—figure supplement 2b) for one substance.

In this test the target is KRAS^G12D (UniProt P01116).

Chain of RBDCRD-NarX fusions (RAS-binding components of the RAS sensor, RBDCRD wild-type) (P0AFA2 whole entry, looked up, the tested form may be a part): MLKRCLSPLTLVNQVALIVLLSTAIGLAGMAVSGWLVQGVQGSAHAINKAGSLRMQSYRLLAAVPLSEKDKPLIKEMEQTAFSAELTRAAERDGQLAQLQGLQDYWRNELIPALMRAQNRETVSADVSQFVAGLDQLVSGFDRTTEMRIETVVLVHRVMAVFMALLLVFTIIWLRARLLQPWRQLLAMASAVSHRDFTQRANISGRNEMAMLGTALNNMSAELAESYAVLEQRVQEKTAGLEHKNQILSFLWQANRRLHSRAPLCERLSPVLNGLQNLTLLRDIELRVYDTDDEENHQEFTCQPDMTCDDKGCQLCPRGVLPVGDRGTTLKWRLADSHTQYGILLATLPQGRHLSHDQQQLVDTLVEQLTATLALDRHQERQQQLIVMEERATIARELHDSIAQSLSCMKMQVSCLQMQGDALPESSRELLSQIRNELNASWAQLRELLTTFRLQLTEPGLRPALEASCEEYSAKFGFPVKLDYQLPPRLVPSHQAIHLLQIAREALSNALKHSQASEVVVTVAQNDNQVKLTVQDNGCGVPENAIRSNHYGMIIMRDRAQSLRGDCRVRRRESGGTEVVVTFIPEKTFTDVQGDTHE

In turn, “RBDCRD-NarX fusions (RAS-binding components of the RAS sensor, RBDCRD wild-type) (from UniProt P0AFA2 379-598; P0AFA2 379-598)” gave an increase in relative mCerulean output of the functional RAS sensor compared to 0 ng/well of KRAS^G12D plasmid (HEK293, Figure 2—figure supplement 2b) of 14 fold.
